Results on two molecules are retold here after patent publication US20250297004A1, “NECTIN-4 BINDING AGENTS” (INNATE PHARMA, priority 2022, published 2025).

The target of one experiment is T1, human Nectin-4 Mutant 1 (human, UniProt Q96NY8 32-510).
T1 construct: Expressed on transfected HEK293T cells; also called S58P/G59D/Q61A/N106D/P107A
T1 chain: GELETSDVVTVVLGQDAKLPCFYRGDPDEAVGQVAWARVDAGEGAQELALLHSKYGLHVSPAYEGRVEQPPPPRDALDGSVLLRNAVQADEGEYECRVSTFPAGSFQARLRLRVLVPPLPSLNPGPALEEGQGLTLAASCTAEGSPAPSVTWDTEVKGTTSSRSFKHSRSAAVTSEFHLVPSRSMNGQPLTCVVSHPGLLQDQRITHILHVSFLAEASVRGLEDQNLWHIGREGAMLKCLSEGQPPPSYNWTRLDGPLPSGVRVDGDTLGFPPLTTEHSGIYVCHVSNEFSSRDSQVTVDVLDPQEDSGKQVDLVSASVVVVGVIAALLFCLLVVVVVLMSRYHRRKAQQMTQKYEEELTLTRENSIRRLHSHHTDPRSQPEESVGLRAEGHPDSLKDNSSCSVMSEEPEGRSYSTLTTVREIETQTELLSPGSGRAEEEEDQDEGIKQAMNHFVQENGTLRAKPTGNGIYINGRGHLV
The experiment in a line: binding to HEK293T cells expressing Nectin-4 mutant; '-' means association does not occur.

In experiment [1] the target is T2, mouse Nectin-4 protein expressed on CHO cells (mouse, UniProt Q8R007 32-508).
T2 construct: also called Mouse Nectin-4-V5
T2 sequence: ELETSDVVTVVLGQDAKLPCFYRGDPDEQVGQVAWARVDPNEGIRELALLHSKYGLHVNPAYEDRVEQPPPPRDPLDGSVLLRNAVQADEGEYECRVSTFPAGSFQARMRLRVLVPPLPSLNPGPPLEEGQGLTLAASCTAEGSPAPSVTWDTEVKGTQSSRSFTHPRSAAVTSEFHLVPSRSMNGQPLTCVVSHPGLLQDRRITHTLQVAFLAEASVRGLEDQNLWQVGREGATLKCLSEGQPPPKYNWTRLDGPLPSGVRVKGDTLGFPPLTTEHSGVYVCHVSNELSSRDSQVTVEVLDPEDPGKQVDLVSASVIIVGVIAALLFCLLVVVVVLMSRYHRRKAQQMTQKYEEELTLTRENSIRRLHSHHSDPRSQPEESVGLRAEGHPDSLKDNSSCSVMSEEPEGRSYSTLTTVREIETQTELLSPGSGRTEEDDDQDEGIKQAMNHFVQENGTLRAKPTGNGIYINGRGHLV
The experiment in a line: flow cytometry on CHO cells expressing mouse Nectin-4.

Experiment [2] addresses T3, human Nectin-4 expressed on cells (human, UniProt Q96NY8 32-510).
T3 construct: On SUM190, SUM185, MDA-MB-468 cells (endogenous) or transfected cells; 31-residue signal peptide left out; also called huN4; wild-type human Nectin-4
T3 sequence: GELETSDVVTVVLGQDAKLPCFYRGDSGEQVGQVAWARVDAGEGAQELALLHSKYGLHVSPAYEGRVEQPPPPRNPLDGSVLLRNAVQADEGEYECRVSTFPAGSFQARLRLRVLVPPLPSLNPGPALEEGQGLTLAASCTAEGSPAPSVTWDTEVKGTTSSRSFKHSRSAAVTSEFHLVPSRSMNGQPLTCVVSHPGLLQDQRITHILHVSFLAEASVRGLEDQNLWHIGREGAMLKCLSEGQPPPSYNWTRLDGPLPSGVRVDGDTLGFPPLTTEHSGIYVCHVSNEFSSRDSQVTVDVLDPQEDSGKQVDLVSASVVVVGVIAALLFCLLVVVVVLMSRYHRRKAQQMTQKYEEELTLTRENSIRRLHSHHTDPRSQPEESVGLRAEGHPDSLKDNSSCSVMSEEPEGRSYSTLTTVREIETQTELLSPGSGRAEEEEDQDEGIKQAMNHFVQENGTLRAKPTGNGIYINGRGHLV
Nature of the experiment: flow cytometry on SUM190 cells, MedFI at saturation. As for the experimental part: The humanized antibodies in Table 3 of Example 3 and in Table 6 of Example 5 were cloned, produced and purified, then tested for binding to Nectin-4 expressing cells by flow cytometry. Binding of humanized variants in human IgG1 format was determined on the SUM190 cell line expressing high levels of Nectin-4.

The next experiment deals with T4, human Nectin-4 Mutant 7 (human, UniProt Q96NY8 32-510).
T4 construct: Expressed on transfected HEK293T cells; also called S195A/K197T/S199A
T4 chain: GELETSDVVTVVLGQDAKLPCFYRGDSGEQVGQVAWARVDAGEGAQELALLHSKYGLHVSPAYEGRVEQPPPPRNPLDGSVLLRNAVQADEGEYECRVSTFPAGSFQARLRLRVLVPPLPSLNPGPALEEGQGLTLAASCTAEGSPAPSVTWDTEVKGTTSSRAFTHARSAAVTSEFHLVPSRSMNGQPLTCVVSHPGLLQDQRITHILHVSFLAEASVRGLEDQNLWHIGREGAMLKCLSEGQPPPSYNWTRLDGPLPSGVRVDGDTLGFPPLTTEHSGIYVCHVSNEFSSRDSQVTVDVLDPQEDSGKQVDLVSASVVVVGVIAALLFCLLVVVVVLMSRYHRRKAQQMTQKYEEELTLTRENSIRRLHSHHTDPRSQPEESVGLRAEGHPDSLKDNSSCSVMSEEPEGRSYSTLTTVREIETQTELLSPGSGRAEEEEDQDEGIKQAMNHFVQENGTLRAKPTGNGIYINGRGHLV
Nature of the experiment: binding to HEK293T cells expressing Nectin-4 mutant; '-' means association does not occur.

The target of experiment [3] is T5, human Nectin-4 Mutant 7bis (human, UniProt Q96NY8 32-510).
T5 construct: Expressed on transfected HEK293T cells; also called A72P/G73N/K197T/S199A
T5 chain: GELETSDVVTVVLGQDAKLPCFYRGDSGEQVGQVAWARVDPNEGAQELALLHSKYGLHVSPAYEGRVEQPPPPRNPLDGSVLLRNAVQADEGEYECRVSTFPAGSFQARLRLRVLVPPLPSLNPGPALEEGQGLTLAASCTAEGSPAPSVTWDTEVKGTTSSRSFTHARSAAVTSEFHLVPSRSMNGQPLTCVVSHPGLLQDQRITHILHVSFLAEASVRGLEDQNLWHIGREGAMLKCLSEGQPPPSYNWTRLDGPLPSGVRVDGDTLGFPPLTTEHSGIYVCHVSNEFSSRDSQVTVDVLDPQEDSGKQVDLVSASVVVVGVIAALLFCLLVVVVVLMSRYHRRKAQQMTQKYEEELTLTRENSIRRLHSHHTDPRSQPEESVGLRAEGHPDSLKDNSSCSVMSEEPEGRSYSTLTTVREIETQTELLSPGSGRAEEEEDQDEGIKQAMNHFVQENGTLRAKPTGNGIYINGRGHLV
The description is as above.

B1: N41 (antibody, V domains shown)
VH: QVQLKQSGPGLVQPSQSLSITCTVSGFSLTNYGVHWVRQSPGKGLEWLGVIWSGGSTDYNAAFISRLSISKDTSKSQVFFKMNSLQADDTAIYYCARELIHAMDNWGQGTSVTVSS
VL: DIQMTQSPASLSVSVGETVTITCRASENIYSNLAWYQQKQGNSPQLLVFAATNLADGVPSRFSGSGSGTQYSLKINSLQSEDFGTYYCQHFWGTPTFGGGTKLEIK
Consider B1, for which the binding result in the experiment with human Nectin-4 Mutant 1 is given as “no binding”.

B2: chimeric parental 5E7 antibody (antibody, V domains shown)
VH: QVQLQQPGAELVKPGASVKLSCKASGYIFTSYWMHWVKQRPGQGLEWIGEIDPSDSYTNYNQKFKGKATLTLDKSSSTTYMQLSSLTSEDSAVYYCVRGYGNYGDYWGQGTTLTVSS
VL: DVVMTQAAFSNPVTLGTSASISCRSSKSLLHSNGITYLYWYLQKPGQSPQLLIYQMSNLASGVPDRFSSSGSGTDFTLRISRVEAEDVGVYYCAQNLELPWTFGGGTKLEIKR
notes: Chimeric antibody, murine variable domains with human constant regions; also called ch5E7; CHG1-M-1N4-5E7
As for B2, the binding result (in experiment [1]; with human Nectin-4 Mutant 7; in experiment [3]) was “no binding” each time. For the same molecule, the “Max MedFi” value in experiment [2] is 25200 MedFI.
